# Assay results as given in PMC9061753, “Mre11-Rad50 oligomerization promotes DNA double-strand break repair” (Nature Communications, 2022).
# Numbering of substitutions follows the chain as printed. Names may count otherwise.
# B1: 197 bp mass photometry (dsDNA)
# DNA 1: GCTTCGTATGTTTCTCCTGCTTATCACCTTCTTGAAGGCTTCCCATTCATTCAGGAACCGCCTTCTGGTGATTTGCAAGAACGCGTACTTATTCGCCACCATGATTATGACCAGTGTTTCCAGTCCGTTCAGTTGTTGCAGTGGAATAGTCAGGTTAAATTTAATGTGACCGTTTATCGCAATCTGCCGACCACTCG
# DNA 2: GCGAGTGGTCGGCAGATTGCGATAAACGGTCACATTAAATTTAACCTGACTATTCCACTGCAACAACTGAACGGACTGGAAACACTGGTCATAATCATGGTGGCGAATAAGTACGCGTTCTTGCAAATCACCAGAAGGCGGTTCCTGAATGAATGGGAAGCCTTCAAGAAGGTGATAAGCAGGAGAAACATACGAAG
# B2: 20 bp EMSA (PC216_20 nt) (dsDNA)
# DNA 1: CGTACTCCACCTCATGCATC
# DNA 2: GATGCATGAGGTGGAGTACG
# modifications: biotin position marked on a T of strand 2 in table
# B3: 31 bp EMSA (X12-3SC) (dsDNA)
# DNA 1: TTGCTAGGACATGCTGTCTAGAGACTATCGC
# DNA 2: GCGATAGTCTCTAGACAGCATGTCCTAGCAA
# B4: 70 bp EMSA (PC210/PC211) (dsDNA)
# DNA 1: GTAAGTGCCGCGGTGCGGGTGCCAGGGCGTGCCCTTGGGCTCCCCGGGCGCGTACTCCACCTCATGCATC
# DNA 2: GATGCATGAGGTGGAGTACGCGCCCGGGGAGCCCAAGGGCACGCCCTGGCACCCGCACCGCGGCACTTAC
# modifications: biotin positions marked in table
# B5: S. cerevisiae Rad50, wild type, untagged (co-expressed subunit) (natural protein, UniProt P12753 1-1312, looked up)
# chain: MSAIYKLSIQGIRSFDSNDRETIEFGKPLTLIVGMNGSGKTTIIECLKYATTGDLPPNSKGGVFIHDPKITGEKDIRAQVKLAFTSANGLNMIVTRNIQLLMKKTTTTFKTLEGQLVAINNSGDRSTLSTRSLELDAQVPLYLGVPKAILEYVIFCHQEDSLWPLSEPSNLKKKFDEIFQAMKFTKALDNLKSIKKDMSVDIKLLKQSVEHLKLDKDRSKAMKLNIHQLQTKIDQYNEEVSEIESQLNEITEKSDKLFKSNQDFQKILSKVENLKNTKLSISDQVKRLSNSIDILDLSKPDLQNLLANFSKVLMDKNNQLRDLETDISSLKDRQSSLQSLSNSLIRRQGELEAGKETYEKNRNHLSSLKEAFQHKFQGLSNIENSDMAQVNHEMSQFKAFISQDLTDTIDQFAKDIQLKETNLSDLIKSITVDSQNLEYNKKDRSKLIHDSEELAEKLKSFKSLSTQDSLNHELENLKTYKEKLQSWESENIIPKLNQKIEEKNNEMIILENQIEKFQDRIMKTNQQADLYAKLGLIKKSINTKLDELQKITEKLQNDSRIRQVFPLTQEFQRADLEMDFQKLFINMQKNIAINNKKMHELDRRYTNALYNLNTIEKDLQDNQKSKEKVIQLLSENLPEDCTIDEYNDVLEETELSYKTALENLKMHQTTLEFNRKALEIAERDSCCYLCSRKFENESFKSKLLQELKTKTDANFEKTLKDTVQNEKEYLHSLRLLEKHIITLNSINEKIDNSQKCLEKAKEETKTSKSKLDELEVDSTKLKDEKELAESEIRPLIEKFTYLEKELKDLENSSKTISEELSIYNTSEDGIQTVDELRDQQRKMNDSLRELRKTISDLQMEKDEKVRENSRMINLIKEKELTVSEIESSLTQKQNIDDSIRSKRENINDIDSRVKELEARIISLKNKKDEAQSVLDKVKNERDIQVRNKQKTVADINRLIDRFQTIYNEVVDFEAKGFDELQTTIKELELNKAQMLELKEQLDLKSNEVNEEKRKLADSNNEEKNLKQNLELIELKSQLQHIESEISRLDVQNAEAERDKYQEESLRLRTRFEKLSSENAGKLGEMKQLQNQIDSLTHQLRTDYKDIEKNYHKEWVELQTRSFVTDDIDVYSKALDSAIMKYHGLKMQDINRIIDELWKRTYSGTDIDTIKIRSDEVSSTVKGKSYNYRVVMYKQDVELDMRGRCSAGQKVLASIIIRLALSETFGANCGVIALDEPTTNLDEENIESLAKSLHNIINMRRHQKNFQLIVITHDEKFLGHMNAAAFTDHFFKVKRDDRQKSQIEWVDINRVTY
# notes: Rad50, S. cerevisiae, untagged; also called Rad50^wt; untagged Rad50; source: Sf9, co-expressed with Mre11-6xHis (and FLAG-Xrs2)
# B6: S. cerevisiae Rad50^N121A/D124N, expressed and purified alone (natural protein, UniProt P12753 1-1312, looked up)
# chain: B5 chain with N121A, D124N
# notes: Rad50, S. cerevisiae; also called Rad50^ho
# B7: S. cerevisiae Rad50, wild type, expressed and purified alone (natural protein, UniProt P12753 1-1312, looked up)
# chain: B5 chain
# notes: Rad50, S. cerevisiae; also called Rad50^wt
# B8: 73 bp mass photometry (dsDNA)
# DNA 1: GACCACCCTTTTTGATATAATATACCTATATCAATGGGCTCCCACGCAATTCGGCAGATACGTTCTGAGGGAA
# DNA 2: GCCCATTGATATAGGTATATTATATCAAAAAGGGTGGTCTTCCCTCAGAACGTATCTGCCGAATTGCGTGGGA
# B9: 106 bp mass photometry (dsDNA)
# DNA 1: TTAGCTCCTACGCGGAACGAGACCTACCAATATACCTATATCAATGGCCTCCCACGCATAAGCCTCGGGAGCTCGACCATCTGGTCTCATCGGACACTTAGGACCA
# DNA 2: TGGTCCTAAGTGTCCGATGAGACCAGATGGTCGAGCTCCCGAGGCTTATGCGTGGGAGGCCATTGATATAGGTATATTGGTAGGTCTCGTTCCGCGTAGGAGCTAA
# Legend:
# MRho [1] = target: T1, MRho (S. cerevisiae, UniProt P32829;P12753 1-692;1-1312, N121A;D124N;Rad50:); assay: mass photometry; 25 mM KCl; Oligo EMSA: 25 mM Tris acetate pH 7.5, 1 mM DTT, 0.25 mg/ml BSA, 5 mM Mg acetate, 1 mM ATPgS, 30 mM NaCl, 30 C 15 min, 100 nM bp DNA; plasmid EMSA: 80 mM KCl, plus 1 mM MnCl2, 30 C 1 h; mass photometry 25 mM KCl; conditions: protein: recombinant, tags: Mre11-6xHis, Rad50 untagged, chain copies: 2;2
# T1 sequence (P32829 whole entry, stated change not applied, one chain of several): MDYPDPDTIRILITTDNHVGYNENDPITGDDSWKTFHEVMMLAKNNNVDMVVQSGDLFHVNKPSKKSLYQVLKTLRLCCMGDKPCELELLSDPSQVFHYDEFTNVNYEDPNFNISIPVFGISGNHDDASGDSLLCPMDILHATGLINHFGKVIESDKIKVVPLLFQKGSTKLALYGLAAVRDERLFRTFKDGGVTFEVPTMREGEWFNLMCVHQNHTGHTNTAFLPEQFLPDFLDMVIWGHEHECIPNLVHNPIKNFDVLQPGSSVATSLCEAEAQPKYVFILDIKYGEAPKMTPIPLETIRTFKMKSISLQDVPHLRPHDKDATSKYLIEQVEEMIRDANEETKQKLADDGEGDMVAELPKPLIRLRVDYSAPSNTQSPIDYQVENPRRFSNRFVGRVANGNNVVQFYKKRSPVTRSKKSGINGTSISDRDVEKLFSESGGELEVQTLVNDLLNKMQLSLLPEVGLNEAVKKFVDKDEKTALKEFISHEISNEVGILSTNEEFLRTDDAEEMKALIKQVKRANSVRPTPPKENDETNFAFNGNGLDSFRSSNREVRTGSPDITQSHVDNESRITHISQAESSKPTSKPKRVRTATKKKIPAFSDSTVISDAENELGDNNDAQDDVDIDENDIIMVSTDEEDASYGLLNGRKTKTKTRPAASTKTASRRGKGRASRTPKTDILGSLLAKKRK
# MRlo = MRlo (S. cerevisiae, UniProt P32829;P12753 1-692;1-1312, L116A;I119A;T127A;L128A;Rad50:); assay: mass photometry; 25 mM KCl, 5 nM protein, 2.5 nM DNA; Oligo EMSA: 25 mM Tris acetate pH 7.5, 1 mM DTT, 0.25 mg/ml BSA, 5 mM Mg acetate, 1 mM ATPgS, 30 mM NaCl, 30 C 15 min, 100 nM bp DNA; plasmid EMSA: 80 mM KCl, plus 1 mM MnCl2, 30 C 1 h; mass photometry 25 mM KCl; conditions: protein: recombinant; tags: Mre11-6xHis; Rad50 untagged; chain copies: 2;2; 1-nt 5' overhangs as printed
# Chain of MRlo (P32829 whole entry, stated change not applied, one chain of several): as above
# Mre11-Rad50 (MRwt) [2] = target: T2, Mre11-Rad50 (MRwt) (S. cerevisiae, UniProt P32829;P12753 1-692;1-1312); assay: EMSA; ATPgS, 5 mM Mg2+, 30 mM NaCl; mean of the 3 visible of 4 replicates (20.5, 22.96, 22.55); apparent; Oligo EMSA: 25 mM Tris acetate pH 7.5, 1 mM DTT, 0.25 mg/ml BSA, 5 mM Mg acetate, 1 mM ATPgS, 30 mM NaCl, 30 C 15 min, 100 nM bp DNA; plasmid EMSA: 80 mM KCl, plus 1 mM MnCl2, 30 C 1 h; mass photometry 25 mM KCl; conditions: protein: recombinant; tags: Mre11-6xHis; Rad50 untagged; chain copies: 2;2; label: 3'-32P on strand 1 (terminal transferase); blunt before 3' labeling
# T2 sequence (P32829 whole entry, one chain of several): as the sequence (P32829 whole entry, stated change not applied, one chain of several) above
# Mre11-Rad50 (MRwt) [3] = target: T2, Mre11-Rad50 (MRwt); assay: EMSA; ATPgS, 5 mM Mg2+, 30 mM NaCl; mean of the 3 visible of 4 replicates (14.03, 13.92, 12.72); apparent; Oligo EMSA: 25 mM Tris acetate pH 7.5, 1 mM DTT, 0.25 mg/ml BSA, 5 mM Mg acetate, 1 mM ATPgS, 30 mM NaCl, 30 C 15 min, 100 nM bp DNA; plasmid EMSA: 80 mM KCl, plus 1 mM MnCl2, 30 C 1 h; mass photometry 25 mM KCl; conditions: protein: recombinant; tags: Mre11-6xHis; Rad50 untagged; chain copies: 2;2; label: 3'-32P on strand 1 (terminal transferase); blunt before 3' labeling
# Mre11-Rad50 (MRwt) [4] = target: T2, Mre11-Rad50 (MRwt); assay: EMSA; ATPgS, 5 mM Mg2+, 30 mM NaCl; mean of the 2 visible of 3 replicates (7.787, 6.135); apparent; Oligo EMSA: 25 mM Tris acetate pH 7.5, 1 mM DTT, 0.25 mg/ml BSA, 5 mM Mg acetate, 1 mM ATPgS, 30 mM NaCl, 30 C 15 min, 100 nM bp DNA; plasmid EMSA: 80 mM KCl, plus 1 mM MnCl2, 30 C 1 h; mass photometry 25 mM KCl; conditions: protein: recombinant; tags: Mre11-6xHis; Rad50 untagged; chain copies: 2;2; label: 3'-32P; blunt before 3' labeling
# [5] = target: the molecule itself; assay: negative staining TEM; purified complexes without DNA; 25 mM Tris acetate pH 7.5, 1 mM DTT, 120 mM KCl; 4 °C, or 30 °C for 30 min with 5 mM Mg2+, 1 mM Mn2+, 1 mM ATPγS; oligomers stable at 150 mM KCl or NaCl; step: M2R2 to (M2R2)n
# [6] = target: the molecule itself; assay: negative staining TEM; proteins on linear or circular plasmid DNA, 30 °C 30 min, Mg2+, Mn2+, ATPγS (or ATP), 30-50 mM KCl; 50-100 nM MR; oligomerization on DNA
# Mre11-Rad50 (MRwt) [7] = target: T2, Mre11-Rad50 (MRwt); assay: mass photometry; 25 mM KCl; Oligo EMSA: 25 mM Tris acetate pH 7.5, 1 mM DTT, 0.25 mg/ml BSA, 5 mM Mg acetate, 1 mM ATPgS, 30 mM NaCl, 30 C 15 min, 100 nM bp DNA; plasmid EMSA: 80 mM KCl, plus 1 mM MnCl2, 30 C 1 h; mass photometry 25 mM KCl; conditions: protein: recombinant; tags: Mre11-6xHis; Rad50 untagged; chain copies: 2;2; bottom as printed is a circular permutation of the complement of top (possible printing error); stated 73 bp
# MRho [8] = target: T1, MRho; assay: mass photometry; 25 mM KCl; two dimers per DNA detected; Oligo EMSA: 25 mM Tris acetate pH 7.5, 1 mM DTT, 0.25 mg/ml BSA, 5 mM Mg acetate, 1 mM ATPgS, 30 mM NaCl, 30 C 15 min, 100 nM bp DNA; plasmid EMSA: 80 mM KCl, plus 1 mM MnCl2, 30 C 1 h; mass photometry 25 mM KCl; conditions: protein: recombinant; tags: Mre11-6xHis; Rad50 untagged; chain copies: 2;2; bottom as printed is a circular permutation of the complement of top (possible printing error); stated 73 bp
# Mre11-Rad50-Xrs2 (MRX) = Mre11-Rad50-Xrs2 (MRX) (S. cerevisiae, UniProt P32829;P12753;P33301 1-692;1-1312;1-854); assay: mass photometry; 25 mM KCl; Oligo EMSA: 25 mM Tris acetate pH 7.5, 1 mM DTT, 0.25 mg/ml BSA, 5 mM Mg acetate, 1 mM ATPgS, 30 mM NaCl, 30 C 15 min, 100 nM bp DNA; plasmid EMSA: 80 mM KCl, plus 1 mM MnCl2, 30 C 1 h; mass photometry 25 mM KCl; conditions: protein: recombinant; tags: His-Mre11; Rad50 untagged; Xrs2-FLAG; chain copies: 2;2;1; blunt
# Chain of Mre11-Rad50-Xrs2 (MRX) (P32829 whole entry, chain 1 of 2): as the sequence (P32829 whole entry, stated change not applied, one chain of several) above
# Chain of Mre11-Rad50-Xrs2 (MRX) (P33301 whole entry, chain 3 of 2): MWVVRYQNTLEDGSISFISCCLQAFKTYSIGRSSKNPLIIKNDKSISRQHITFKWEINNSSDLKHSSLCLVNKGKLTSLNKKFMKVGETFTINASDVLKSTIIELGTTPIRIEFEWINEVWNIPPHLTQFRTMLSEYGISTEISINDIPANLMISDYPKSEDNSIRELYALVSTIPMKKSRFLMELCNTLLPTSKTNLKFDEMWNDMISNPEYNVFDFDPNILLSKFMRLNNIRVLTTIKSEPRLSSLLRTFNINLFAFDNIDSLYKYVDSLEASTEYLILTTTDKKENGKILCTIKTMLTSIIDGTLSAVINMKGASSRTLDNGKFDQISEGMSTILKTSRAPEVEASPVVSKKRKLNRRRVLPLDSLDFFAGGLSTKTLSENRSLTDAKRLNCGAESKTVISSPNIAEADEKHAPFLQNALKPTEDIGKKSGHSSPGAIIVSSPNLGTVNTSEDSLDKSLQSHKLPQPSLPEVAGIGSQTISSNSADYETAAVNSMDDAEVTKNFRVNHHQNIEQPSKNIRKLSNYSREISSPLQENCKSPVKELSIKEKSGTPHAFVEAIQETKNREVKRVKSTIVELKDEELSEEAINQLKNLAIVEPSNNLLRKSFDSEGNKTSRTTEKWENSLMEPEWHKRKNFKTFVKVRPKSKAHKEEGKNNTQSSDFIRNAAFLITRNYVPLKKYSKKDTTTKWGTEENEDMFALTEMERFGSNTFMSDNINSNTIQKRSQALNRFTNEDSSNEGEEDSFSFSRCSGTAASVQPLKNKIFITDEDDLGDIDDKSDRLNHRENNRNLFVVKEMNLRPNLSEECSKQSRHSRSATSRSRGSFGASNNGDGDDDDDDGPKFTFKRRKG
# Mre11-Rad50 (MRwt) [9] = target: T2, Mre11-Rad50 (MRwt); assay: mass photometry; 25 mM KCl; two dimers per DNA detected; Oligo EMSA: 25 mM Tris acetate pH 7.5, 1 mM DTT, 0.25 mg/ml BSA, 5 mM Mg acetate, 1 mM ATPgS, 30 mM NaCl, 30 C 15 min, 100 nM bp DNA; plasmid EMSA: 80 mM KCl, plus 1 mM MnCl2, 30 C 1 h; mass photometry 25 mM KCl; conditions: protein: recombinant; tags: Mre11-6xHis; Rad50 untagged; chain copies: 2;2; blunt
binder,measurement,setting,value
B1,binding result,MRho [1]; 1-nt 5' overhangs as printed,binds
same,binding result,MRlo,no binding
B2,Kd,Mre11-Rad50 (MRwt) [2],~22 nM
B3,Kd,Mre11-Rad50 (MRwt) [3],~13.6 nM
B4,Kd,Mre11-Rad50 (MRwt) [4],~6.96 nM
B5,binding result,[5],binds
B6,binding result,[6],binds
B7,binding result,[6],binds
B8,binding result,Mre11-Rad50 (MRwt) [7],binds
same,binding result,MRho [8],binds
B9,binding result,Mre11-Rad50-Xrs2 (MRX),binds
same,binding result,MRho [1]; blunt,binds
same,binding result,Mre11-Rad50 (MRwt) [9],binds
